Among the data in publication PMC8617272 are stoichiometry N values, retold here.

One may read the stoichiometry N as the number of molecules, sites or subunits per partner or assembly.

In the test the target is AdeB from Acinetobacter baumannii (RND transporter subunit of the AdeABC efflux pump) (Acinetobacter baumannii AYE). The test can be described thus: native gel or EMSA + other: negative stain electron microscopy; AdeB reconstituted into Salipro Nanodiscs. For orientation: Mobility shift assays separate free from complexed probe on a gel.

Regarding “AdeB from Acinetobacter baumannii (RND transporter subunit of the AdeABC efflux pump) (natural protein)”, the stoichiometry N was found to be 3.
